Test results taken from the supplement of paper PMC12855868.

B1: library; numbered along this chain (parent)
chain: MAAAGGARLLRAASAVLGGPAGRWLHHAGSRAGSSGLLRNRGPGGSAEASRSLSVSARARSSSEDKITVHFINRDGETLTTKGKVGDSLLDVVVENNLDIDGFGACEGTLACSTCHLIFEDHIYEKLDAITDEENDMLDLAYGLTDRSRLGCQICLTKSMDNMTVRVPETVADARQSIDVGKTS

Variants of: B1
Experiment: scaled log2 fold change in cell abundance, elesclomol vs control (0 = silent mean, 1 = nonsense mean) (scaled log2 ratio); higher = higher viability under elesclomol (loss of FDX1 cuproptosis function)
Conditions: glucose 10 mM
[1] = with ABC1 FDX1 KO, elesclomol 5 nM, 14 days
[2] = with HEK293T FDX1 KO, elesclomol 40 nM, 11 days
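Also: variant abundance is its share of total variant reads in each endpoint sample, from next-generation sequencing of the integrated ORF PCR-amplified out of genomic DNA.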

Variant	scaled log2 fold change [1]	scaled log2 fold change [2]
MAAAGGARLLRAASAVLGGPAGRWLHHAGSRAGSSGLLRNRGPGGSAEASRSLSVSARARSSSEDKITVHFINRDGETLTTKGKVGDSLLDVVVENNLDIDGFGACEGTLACSTCHLIFEDHIYEKLDEITDEENDMLDLAYGLTDRSRLGCQICLTKSMDNMTVRVPETVADARQSIDVGKTS	-0.447	-0.333
MAAAGGARLLRAASAVLGGPAGRWLHHAGSRAGSSGLLRNRGPGGSAEASRSLSVSARARSSSEDKITVHFINRDGETLTTKGKVGDSLLDVVVENNLDIDGFGACEGTLACSTCHLIFEDHIYEKLDFITDEENDMLDLAYGLTDRSRLGCQICLTKSMDNMTVRVPETVADARQSIDVGKTS	0.044	-0.227
MAAAGGARLLRAASAVLGGPAGRWLHHAGSRAGSSGLLRNRGPGGSAEASRSLSVSARARSSSEDKITVHFINRDGETLTTKGKVGDSLLDVVVENNLDIDGFGACEGTLACSTCHLIFEDHIYEKLDDITDEENDMLDLAYGLTDRSRLGCQICLTKSMDNMTVRVPETVADARQSIDVGKTS	-0.23	0.439
MAAAGGARLLRAASAVLGGPAGRWLHHAGSRAGSSGLLRNRGPGGSAEASRSLSVSARARSSSEDKITVHFINRDGETLTTKGKVGDSLLDVVVENNLDIDGFGACEGTLACSTCHLIFEDHIYEKLDGITDEENDMLDLAYGLTDRSRLGCQICLTKSMDNMTVRVPETVADARQSIDVGKTS	0.16	–
MAAAGGARLLRAASAVLGGPAGRWLHHAGSRAGSSGLLRNRGPGGSAEASRSLSVSARARSSSEDKITVHFINRDGETLTTKGKVGDSLLDVVVENNLDIDGFGACEGTLACSTCHLIFEDHIYEKLDCITDEENDMLDLAYGLTDRSRLGCQICLTKSMDNMTVRVPETVADARQSIDVGKTS	-0.31	0.555
MAAAGGARLLRAASAVLGGPAGRWLHHAGSRAGSSGLLRNRGPGGSAEASRSLSVSARARSSSEDKITVHFINRDGETLTTKGKVGDSLLDVVVENNLDIDGFGACEGTLACSTCHLIFEDHIYEKLTAITDEENDMLDLAYGLTDRSRLGCQICLTKSMDNMTVRVPETVADARQSIDVGKTS	-0.378	–
MAAAGGARLLRAASAVLGGPAGRWLHHAGSRAGSSGLLRNRGPGGSAEASRSLSVSARARSSSEDKITVHFINRDGETLTTKGKVGDSLLDVVVENNLDIDGFGACEGTLACSTCHLIFEDHIYEKLVAITDEENDMLDLAYGLTDRSRLGCQICLTKSMDNMTVRVPETVADARQSIDVGKTS	0.419	-0.465
MAAAGGARLLRAASAVLGGPAGRWLHHAGSRAGSSGLLRNRGPGGSAEASRSLSVSARARSSSEDKITVHFINRDGETLTTKGKVGDSLLDVVVENNLDIDGFGACEGTLACSTCHLIFEDHIYEKLWAITDEENDMLDLAYGLTDRSRLGCQICLTKSMDNMTVRVPETVADARQSIDVGKTS	-0.0394	-0.406
MAAAGGARLLRAASAVLGGPAGRWLHHAGSRAGSSGLLRNRGPGGSAEASRSLSVSARARSSSEDKITVHFINRDGETLTTKGKVGDSLLDVVVENNLDIDGFGACEGTLACSTCHLIFEDHIYEKLYAITDEENDMLDLAYGLTDRSRLGCQICLTKSMDNMTVRVPETVADARQSIDVGKTS	-0.45	0.0308
